Measurements: article PMC7005279, “Cryo-EM study of an archaeal 30S initiation complex gives insights into evolution of translation initiation” (Communications Biology, 2020)

Tests used:
[1] = target: ribosomal protein uS11 of the Pyrococcus abyssi 30S subunit (P. abyssi, UniProt P62010 1-137); assay: cryo-EM structure; IC2 complex (Pa-30S:mRNA:aIF1A:aIF2:GDPNP:Met-tRNAi) purified on TALON by N-terminally tagged aIF2β and aIF2α; overall 3.2 Å, classes IC2A 4.2 Å and IC2B 3.3 Å; aIF1A and aIF2 placed by rigid body fitting; conditions: both partners purified
[2] = target: T1, ribosomal protein uS9 of the Pyrococcus abyssi 30S subunit (P. abyssi, UniProt Q9V195 1-135); assay: as above; conditions: both partners purified
T1 construct: 30S ribosomal protein uS9 (S9), Pyrococcus abyssi; its C-terminal residue is printed as R135; Subunit of the native 30S; source: endogenous, in 30S subunits purified from P. abyssi
T1 sequence (Q9V195 whole entry): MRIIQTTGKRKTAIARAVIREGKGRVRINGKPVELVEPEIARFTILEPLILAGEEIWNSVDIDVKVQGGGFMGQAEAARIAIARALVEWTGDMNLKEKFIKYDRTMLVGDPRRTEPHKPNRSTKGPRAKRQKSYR

Binder	binding result [1]	binding result [2]
ribosomal protein uS7 of the Pyrococcus abyssi 30S subunit (natural protein, Subunit of the native 30S; source: endogenous, in 30S subunits purified from P. abyssi) not shown	binds	–
ribosomal protein uS19 of the Pyrococcus abyssi 30S subunit (natural protein, 30S ribosomal protein uS19 (S19), Pyrococcus abyssi; Subunit of the native 30S; source: endogenous, in 30S subunits purified from P. abyssi) not shown	–	binds
